Measurements taken from the supplement of paper PMC11780869.

Tested on: Bacillus subtilis
Test: cleaved RNA product abundance (RNA/gDNA barcode ratio) relative to median wild-type variant (ratio to wild type); higher = more accumulation of the downstream cleavage product
Conditions: cleavage site: cggR-gapA (positions -7 to +36 mutated)
Summary of the method: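 Sequencing of barcodes from gel-selected, reverse-transcribed cleaved RNA and from genomic DNA, with UMI collapsing, yielded a per-construct RNA:gDNA ratio. Scaled to the median construct with the unmutated site, this ratio is the cleaved product abundance. The barcoded reporters (truncated aprE or tetM mRNAs with mutagenized RNase Y cleavage-site windows) were integrated into the B. subtilis chromosome, and cultures grew in LB at 37°C from OD600 0.0003 to 0.3.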

[1] = experiment (reporter, strain, medium): exp 2b: truncated aprE reporter, strain BJT200
[2] = experiment (reporter, strain, medium): exp 4a: truncated aprE reporter, strain BJT201 with 2% xylose (RNase J1 expressed)
[3] = experiment (reporter, strain, medium): exp 6: tetM reporter, strain 168

Row | Sequence | cleaved RNA product abundance [1] | cleaved RNA product abundance [2] | cleaved RNA product abundance [3]
1 | ACAGACGAAGGAGCCGCAAAGAAGTTATTACGGGAAGAATAATCCCTCAATATAAATATCTCTCACTTATTTAAA | 0.152 | 0.322 | –
2 | ACAGACGAAGGAGCCGCAAAGAAGTTATTACGGGATAAATAATCCCTCAATATAAATATCTCTCACTTATTTAAA | – | 0.416 | –
3 | ACAGACGAAGGAGCCGCAAAGAAGTTATTACGGGATGAAAAATCCCTCAATATAAATATCTCTCACTTATTTAAA | 0.223 | 0.321 | –
4 | ACAGACGAAGGAGCCGCAAAGAAGTTATTACGGGATGAATAAACCCTCAATATAAATATCTCTCACTTATTTAAA | – | 0.158 | –
5 | ACAGACGAAGGAGCCGCAAAGAAGTTATTACGGGATGAATAAGCCCTCAATATAAATATCTCTCACTTATTTAAA | 0.189 | – | –
6 | ACAGACGAAGGAGCCGCAAAGAAGTTATTACGGGATGAATAATACCTCAATATAAATATCTCTCACTTATTTAAA | – | 0.112 | –
7 | ACAGACGAAGGAGCCGCAAAGAAGTTATTACGGGATGAATAATCACTCAATATAAATATCTCTCACTTATTTAAA | 0.108 | – | –
8 | ACAGACGAAGGAGCCGCAAAGAAGTTATTACGGGATGAATAATCCCTAAATATAAATATCTCTCACTTATTTAAA | 0.428 | 0.394 | –
9 | ACAGACGAAGGAGCCGCAAAGAAGTTATTACGGGATGAATAATCCCTCAATATAAATATCTCTCACTTATTTAAA | 0.32 | 0.46 | 0.453
10 | ACAGACGAAGGAGCCGCAAAGAAGTTATTACGGGATGAATAATCCCTCAATATAAATATTTCTCACTTATTTAAA | – | 0.399 | –
11 | ACAGACGAAGGAGCCGCAAAGAAGTTATTACGGGATGAATAATCCCTCAATATAAATCTCTCTCACTTATTTAAA | – | 0.368 | –
12 | ACAGACGAAGGAGCCGCAAAGAAGTTATTACGGGATGAATAATCCCTCAATATAGATATCTCTCACTTATTTAAA | – | 0.351 | –
13 | ACAGACGAAGGAGCCGCAAAGAAGTTATTACGGGATGAATAATCCCTCGATATAAATATCTCTCACTTATTTAAA | – | 0.259 | –
14 | ACAGACGAAGGAGCCGCAAAGAAGTTATTACGGGATGAATAATCCCTTAATATAAATATCTCTCACTTATTTAAA | – | 1.47 | –
15 | ACAGACGAAGGAGCCGCAAAGAAGTTATTACGGGATGAATAATGCCTCAATATAAATATCTCTCACTTATTTAAA | – | 0.128 | –
16 | ACAGACGAAGGAGCCGCAAAGAAGTTATTACGGGATGAATCATCCCTCAATATAAATATCTCTCACTTATTTAAA | 0.316 | – | –
17 | ACAGACGAAGGAGCCGCAAAGAAGTTATTACGGGATGAATGATCCCTCAATATAAATATCTCTCACTTATTTAAA | – | 0.247 | –
18 | ACAGACGAAGGAGCCGCAAAGAAGTTATTACGGGATGATTAATCCCTCAATATAAATATCTCTCACTTATTTAAA | – | 0.204 | –
19 | ACAGACGAAGGAGCCGCAAAGAAGTTATTACGGGTTGAATAATCCCTCAATATAAATATCTCTCACTTATTTAAA | 0.087 | 0.16 | –
20 | ACAGACGAAGGAGCCGCAAAGAAGTTATTACGGTATGAATAATCCCTCAATATAAATATCTCTCACTTATTTAAA | – | 0.141 | –
21 | ACAGACGAAGGAGCCGCAAAGAAGTTATTACGTGATGAATAATCCCTCAATATAAATATCTCTCACTTATTTAAA | 0.0928 | 0.113 | –
22 | ACAGACGAAGGAGCCGCAAAGAAGTTATTACTGGATGAATAATCCCTCAATATAAATATCTCTCACTTATTTAAA | – | 0.199 | –
23 | ACAGACGAAGGAGCCGCAAAGAAGTTATTAGAGGATGAATAATCCCTCAATATAAATATCTCTCACTTATTTAAA | – | 0.301 | –
24 | ACAGACGAAGGAGCCGCAAAGAAGTTATTAGGAGATGAATAATCCCTCAATATAAATATCTCTCACTTATTTAAA | – | 0.24 | –
25 | ACAGACGAAGGAGCCGCAAAGAAGTTATTAGGGCATGAATAATCCCTCAATATAAATATCTCTCACTTATTTAAA | – | 0.132 | –
26 | ACAGACGAAGGAGCCGCAAAGAAGTTATTAGGGGAAGAATAATCCCTCAATATAAATATCTCTCACTTATTTAAA | 0.278 | – | –
27 | ACAGACGAAGGAGCCGCAAAGAAGTTATTAGGGGATGAATAATACCTCAATATAAATATCTCTCACTTATTTAAA | – | 0.211 | –

Row | Sequence | cleaved RNA product abundance [1] | cleaved RNA product abundance [2] | cleaved RNA product abundance [3]
28 | ACAGACGAAGGAGCCGCAAAGAAGTTATTAGGGGATGAATAATCACTCAATATAAATATCTCTCACTTATTTAAA | 0.114 | 0.112 | –
29 | ACAGACGAAGGAGCCGCAAAGAAGTTATTAGGGGATGAATAATCCCTCAAAATAAATATCTCTCACTTATTTAAA | 0.351 | 0.476 | –
30 | ACAGACGAAGGAGCCGCAAAGAAGTTATTAGGGGATGAATAATCCCTCAATATAAATATCTCTCACTTATTTAAA | 0.699 | 0.718 | 0.377
31 | ACAGACGAAGGAGCCGCAAAGAAGTTATTAGGGGATGAATAATCCCTGAATATAAATATCTCTCACTTATTTAAA | – | 0.371 | –
32 | ACAGACGAAGGAGCCGCAAAGAAGTTATTAGGGGATGAATAATCCCTTAATATAAATATCTCTCACTTATTTAAA | – | 0.808 | –
33 | ACAGACGAAGGAGCCGCAAAGAAGTTATTAGGGGATGAATAATCCTTCAATATAAATATCTCTCACTTATTTAAA | – | 0.636 | –
34 | ACAGACGAAGGAGCCGCAAAGAAGTTATTAGGGGATGACTAATCCCTCAATATAAATATCTCTCACTTATTTAAA | – | 0.63 | –
35 | ACAGACGAAGGAGCCGCAAAGAAGTTATTAGGGGATGGATAATCCCTCAATATAAATATCTCTCACTTATTTAAA | 0.481 | 0.709 | –
36 | ACAGACGAAGGAGCCGCAAAGAAGTTATTAGGGGATTAATAATCCCTCAATATAAATATCTCTCACTTATTTAAA | – | 0.866 | –
37 | ACAGACGAAGGAGCCGCAAAGAAGTTATTAGGGGTTGAATAATCCCTCAATATAAATATCTCTCACTTATTTAAA | – | 0.254 | –
38 | ACAGACGAAGGAGCCGCAAAGAAGTTATTAGGGTATGAATAATCCCTCAATATAAATATCTCTCACTTATTTAAA | – | 0.361 | –
39 | ACAGACGAAGGAGCCGCAAAGAAGTTATTAGGTGATGAATAATCCCTCAATATAAATATCTCTCACTTATTTAAA | – | 0.331 | –
40 | ACAGACGAAGGAGCCGCAAAGAAGTTATTAGTGGATGAATAATCCCTCAATATAAATATCTCTCACTTATTTAAA | 0.295 | 0.385 | –
41 | ACAGACGAAGGAGCCGCAAAGAAGTTATTATAGGATGAATAATCCCTCAATATAAATATCTCTCACTTATTTAAA | 0.149 | 0.203 | –
42 | ACAGACGAAGGAGCCGCAAAGAAGTTATTATCGGATGAATAATCCCTCAATATAAATATCTCTCACTTATTTAAA | – | 0.178 | –
43 | ACAGACGAAGGAGCCGCAAAGAAGTTATTATGAGATGAATAATCCCTCAATATAAATATCTCTCACTTATTTAAA | 0.0958 | 0.147 | –
44 | ACAGACGAAGGAGCCGCAAAGAAGTTATTATGGAATGAATAATCCCTCAATATAAATATCTCTCACTTATTTAAA | – | 0.105 | –
45 | ACAGACGAAGGAGCCGCAAAGAAGTTATTATGGCATGAATAATCCCTCAATATAAATATCTCTCACTTATTTAAA | 0.0973 | 0.184 | –
46 | ACAGACGAAGGAGCCGCAAAGAAGTTATTATGGGAAGAATAATCCCTCAATATAAATATCTCTCACTTATTTAAA | 0.159 | 0.246 | –
47 | ACAGACGAAGGAGCCGCAAAGAAGTTATTATGGGACGAATAATCCCTCAATATAAATATCTCTCACTTATTTAAA | – | 0.174 | –
48 | ACAGACGAAGGAGCCGCAAAGAAGTTATTATGGGATAAATAATCCCTCAATATAAATATCTCTCACTTATTTAAA | 0.31 | 0.362 | –
49 | ACAGACGAAGGAGCCGCAAAGAAGTTATTATGGGATCAATAATCCCTCAATATAAATATCTCTCACTTATTTAAA | 0.23 | – | –
50 | ACAGACGAAGGAGCCGCAAAGAAGTTATTATGGGATGAAAAATCCCTCAATATAAATATCTCTCACTTATTTAAA | – | 0.334 | –
51 | ACAGACGAAGGAGCCGCAAAGAAGTTATTATGGGATGAATAAACCCTCAATATAAATATCTCTCACTTATTTAAA | – | 0.21 | –
52 | ACAGACGAAGGAGCCGCAAAGAAGTTATTATGGGATGAATAACCCCTCAATATAAATATCTCTCACTTATTTAAA | – | 0.194 | –
53 | ACAGACGAAGGAGCCGCAAAGAAGTTATTATGGGATGAATAATCCATCAATATAAATATCTCTCACTTATTTAAA | – | 0.236 | –
54 | ACAGACGAAGGAGCCGCAAAGAAGTTATTATGGGATGAATAATCCCTAAATATAAATATCTCTCACTTATTTAAA | – | 0.514 | –
